Assay: yeast display, Sf9 membrane polyspecificity reagent, FACS + sequencing; frameworks hold sequencing errors
Outline: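 In a synthetic yeast display library (Saccharomyces cerevisiae BJ5465), nanobody expression was induced with galactose for 36–48 hours. FACS gates were set low and high (top ~1%) using anti-HA fluorescence for expression and streptavidin fluorescence for binding of the Sf9 membrane reagent. Each polyreactivity label is drawn from the gate of origin.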

Q: For “QVQLVESGGGLVQAGGSLRLSCAASGIIFYVNAMGWYRPAPGKDRELVAAITFGGDSTYYADSVKGRFTITRDNAKNTVYLQMNSLKQEDTAVYYWAAEGLSLGGYYYWGQGTQVTVSS”, which “polyreactivity (PSR sort gate)” value is on record?
A: The value was “low polyreactivity”.

Q: For “QVQLVESGGGLVQAGGSLRLSCAASGSIFTDNAMGWYRQAPGKERELVAAITSNGGSTYYADSVKGRFTISRDNAKNTVYLQMNSLKPEDTAVYYCAADSLYREDDYWGHGTQVTVSS”, which “polyreactivity (PSR sort gate)” value is on record?
A: The value was “low polyreactivity”.

Q: With “QVQLVESGGGLVQAGGSLRLSCAASGRIFAGYGMGWYRQAPGKARELVAAISSGGSTYYADSVKGRFTISRDNAKNTVYLQMNSLKPEDTAVYYCATDGQSVPDDYYQNVDYDYWGQGTQLTVSS” as the sequence, how does the “polyreactivity (PSR sort gate)” value read?
A: The value was “low polyreactivity”.

Q: With “QVQLVESGGGLVQAGGSLRLSCAASGRTLAFNAMGWSRQAPGKERELGAGIRNGTSTNYADSVKGRFTISRVNAKNTVYLQMNCLKPEDTADYYCNVPYYLQSYLSGYDYWGQGTQVSVSS” as the sequence, how does the “polyreactivity (PSR sort gate)” value read?
A: Its value is “low polyreactivity”.

Q: Which “polyreactivity (PSR sort gate)” value does the source give for “QVQLVESGGGLVQAGGSLRLSCAASGSTFDVNAMGWYRQAPGKERELVADITSGGSTNYADSVKGRFTISRDNAKNTVYLQMNSLKREDTAVYYCARDDWFGFIRVQEMDYWGQGTQVTVSS” here?
A: Its value is “low polyreactivity”.

Q: For “QVQLVESGGGLVQAGGSLRLSCAASGSTFYNNAMGWYRQAPGKERELVAAISSGGGTYYADSVKGRFTISRDNAKNTVYLQMNSLKPEDTAVYYCAADFANTTHWGRIKRYDYWGQGTQVTVSS”, which “polyreactivity (PSR sort gate)” value is on record?
A: Its value is “low polyreactivity”.

Q: Which “polyreactivity (PSR sort gate)” value does the source give for “QVQLVESGGGLVQAGGSLRLSCAASGSTFKTYVMGWYRQAPGKERELVAGISDSGGTTYYADSVKGRFTISRDNAKNTVYLQMNSLKPEDTAVYFCNAAFGVYVATGDSFPWHKKFGYWGQGTQVTVSS” here?
A: Its value is “high polyreactivity”.

Q: With “QVQLVESGGGLVQAGGSLRLSCAASGITFFTYGLGWYRQAPGKERELVASINWSGGTYYADSVKGRFTISRDKAKNTVYLQMNSLKPEDTAVYYCAAETHVESGSRDFYTEDYWGQGTQVTVSS” as the sequence, how does the “polyreactivity (PSR sort gate)” value read?
A: Its value is “low polyreactivity”.

Q: Which “polyreactivity (PSR sort gate)” value does the source give for “QVQLVESGGGLVQAGGSLRLSCAASGFLFGWNAMGGYRQAPGKERELVAAISARGGSTSYADSVKGRFTISRDTAKNTVYLQMNSLKPEDTAVYYCSAKSAFPLDYWGQGTQVTVSS” here?
A: Its value is “high polyreactivity”.

Q: Which “polyreactivity (PSR sort gate)” value does the source give for “QVQLLESGGGLVQAGGSLRLSCAASGSIFRGNAMGWYRQAPGKERELVAAISQRGTSTYYADSVKGRFTISRDYAKNTVYLQMNSLKPEDTAVYYCNALYWQIGDDYWGQGTQVTVSS” here?
A: The value was “high polyreactivity”.

Q: With “QVQLVESGGGLVQAGGSLRLSCAASGLTFYIYAMGWSRQAPGKERELVAGISWIGGRTYYADSVKGRFTISRDNAKNTVYLQLNSLKPEDTAVYYCIAYLSYTSRGRYYKYDYWGQGTQVTVSS” as the sequence, how does the “polyreactivity (PSR sort gate)” value read?
A: Its value is “high polyreactivity”.

Q: For “QVQLVESGGGLVQAGGSLRLSCAASGSTYSWYAMGWYRQAPGKERELVASISWRGGSTYYADSVKGRFTISRDNAKNTVYLQMNSLKPEDTAVYYCAADYYWKLFHEPPAVYDYDYWGQCTQVTVSS”, which “polyreactivity (PSR sort gate)” value is on record?
A: The value was “low polyreactivity”.

Q: Which “polyreactivity (PSR sort gate)” value does the source give for “QVQLVESGGGLVQAGGSLRLSCAASGSIFDLYAMGWYRQAPGKERELVAAITSTGSTYYADSVKGRFTISRDNAKNTVYLQMNSLKPEDTAVYYCAATRGSSEYYYWGQGTQVTVSS” here?
A: The value was “low polyreactivity”.

Q: For “QVQLVESGGGLVQAGGSLRLSCAASGNIFGEYAMGWYRQAPGKERELVATISSGGDTYYADSVKGRFTISRDNAKNTVYLQMNSLKPEDTAVYYCAVVDTLYESKYDYWGQGTQVTVSS”, which “polyreactivity (PSR sort gate)” value is on record?
A: The value was “low polyreactivity”.

Q: With “QVQLVESGGGLVQAGGSLRLSCAASGSIFSRYAMGWYRQAPGKERELVAAITWRGGSTYYADSVKGRFTISRDNAKNTVYLQMNSLKPEDTAVYYCAKDRWTYAFRVGYGYWGQGTQVTVSS” as the sequence, how does the “polyreactivity (PSR sort gate)” value read?
A: The value was “high polyreactivity”.

Q: For “QVQLVESGGGLVQAGGSLRLSCAASGYTFPRYTMGWYRQAPGKERELVAAINWSGGSTYYADSVKGRFTISRDNAKNTVYLQMNSLKPEDTAVYYCAAPVFHLYTDRMGYWGQGTQVTVSS”, which “polyreactivity (PSR sort gate)” value is on record?
A: The value was “high polyreactivity”.

Q: Which “polyreactivity (PSR sort gate)” value does the source give for “QVQLVESGGGLVQAGGSLRLSCAASGSIFGGYVMGWSRQAPGKEWELVAAITSGGSTYYADSVKGRFTISRDNAKNTVYLQMNSLKPEDTAVYYCNADPYTYSYGMYYWGQGTQVTVSS” here?
A: Its value is “low polyreactivity”.

Q: With “QVQLVESGGGLVQAGGSLRLSCAASGFIISGNAMGWYRQAPGKERELVASISRSGGSTYYADSVKGRFTISRDNAKNTVYLQMNSLKPEDTAVYYCNARYYAIGQFNYWGQGTQVTVSS” as the sequence, how does the “polyreactivity (PSR sort gate)” value read?
A: The value was “low polyreactivity”.

Q: Which “polyreactivity (PSR sort gate)” value does the source give for “QVQLVESGGGLVQAGGSLRLSCAASGRILPYYAMGWYRQAPGKERELVAAITSGGSTYYADSVKGRFTISRDNAKNTVYLQMNSLKPEDTAVYYCATDVDKSLYDYWGQGTQVTVSS” here?
A: Its value is “low polyreactivity”.

Q: Which “polyreactivity (PSR sort gate)” value does the source give for “QVQLVESGGGLVQAGGSLRLSCAASGSIFGRYTMGWYRQAPGKERELVAAISSSGGRTYYADSVKGRFTISRDNAKNTVYLQMNSLKPEDTAVYYCNKGYGYEYYWGQGTQVTVSS” here?
A: The value was “low polyreactivity”.

Q: Which “polyreactivity (PSR sort gate)” value does the source give for “QVQLVETGGGLVQAGGSLRLSCAPSGFIFYRNTMGWYRQAPGKERELDATISRRGGSTYYADSVKGRFTISRDNAKNTVYLQMNSLKPEDTAVYYCADGPRFSYYTHRYGYWGEGTQVTVSS” here?
A: Its value is “high polyreactivity”.

Q: With “QVQLVESGGGLVQAGGSLRLSCAASGSIFYGNAMGWYRQAPGKERELVAAISKRGGSTYYADSVKGRFTISRDKAKNSVYLQMNSLKPEDTAVYYCAKATAGHTEYYYWGQGTQVTVSS” as the sequence, how does the “polyreactivity (PSR sort gate)” value read?
A: The value was “high polyreactivity”.

Q: Which “polyreactivity (PSR sort gate)” value does the source give for “QVQLVESGGGLVQAGGSLRFSCAASGSILYYNAKGWYIQAPGKEREFVAAISDSGSSTYYADSVKGRFTISRDTAKNTVYLQMNSLKPEDTADYYCNAYQGDKYDSWGQGSQVTVSS” here?
A: Its value is “low polyreactivity”.

Q: With “QVQLVDAGGRLVQAGGSLRLSCAASGRIFAYYAMGWSRQAPGKDRELVSGISQRGSRTYYADSVKGRFTISRDNEKNTVYLQMNSLKPEDTAVYYCNTQRWGSGVGSLMDYWGQGTQVTVSS” as the sequence, how does the “polyreactivity (PSR sort gate)” value read?
A: The value was “high polyreactivity”.

Q: For “KVQLVESGAGLVQAGGSLRLSCAAYGSIFVGYHMGWYRQAPGKERELVAGITGAGSTNYADSVKGRFTISRENAKNTVYLQMNSLKPEDTAVYYCAADYDTPQGTKYYYWGQGTKVTVSS”, which “polyreactivity (PSR sort gate)” value is on record?
A: The value was “low polyreactivity”.

Q: With “QVQLVESGGGLVQAGGSLRLSCAASGSTFKRNAMGWYRQAPGKDRELVAAISFRGGSTYYADSVKGRFTISRDNAKNTVYLQMNSLKPEDTAVYYCAAGIYRIRGGGISFDYWGQGTQVTVSS” as the sequence, how does the “polyreactivity (PSR sort gate)” value read?
A: Its value is “high polyreactivity”.

Q: Which “polyreactivity (PSR sort gate)” value does the source give for “QVQRVESGGGLVQAGGSLRLSCAASGSTFEYYAMGWYRQAPGKERELVAAISGGGSTNYADSVKGRFTISRDNAKNTVYLQMNSLTPEVTAVYYCNASDVGSRTSNYWGQGTQVTVSS” here?
A: The value was “low polyreactivity”.

Q: For “QVQLVESGGGLVQAGGSLRLICAASGNIFAVYAMGWYRQAPGKERELVAAITTGTNTYADSVKGRFTISRDNAKNNVYLQMNSLKPEDTAVYFCAARYYRPLDYWGQGTQVTVSS”, which “polyreactivity (PSR sort gate)” value is on record?
A: The value was “low polyreactivity”.

Q: Which “polyreactivity (PSR sort gate)” value does the source give for “QVQLVESGGGLVQAGGSLRLSCAASGSTFPVNTMGWYRQAPGKERELVAAISSDDNTNYADSVKGRFTISRDNAKNTVYLQMNSLKPEDTAVYYCAVKGHPAYVEVPPRYAWEFDYWGQGTQVTVSS” here?
A: The value was “low polyreactivity”.

Q: Which “polyreactivity (PSR sort gate)” value does the source give for “QVQLVESGGGLVQAGGSLRLSCAASGITFYLYAMGWYRQAPGKERELVAAISRGGSTNYADSVKGRFTISRDNAKNTVYLQMNSLKPEDTAVYYCAAVDRYGFGYWGQGTQVTVSS” here?
A: Its value is “high polyreactivity”.

Q: For “QVQLVESGGGLVQAGGILRLSCAASGSTFYYYAMGWYRQAPGKERELVAAISSSGGTTYYADSVKGRLTISRDNAKNTVYLQMNSLKAEVTAVYYCAAQRYPSSLYQRFYYWGQGTQVTVSS”, which “polyreactivity (PSR sort gate)” value is on record?
A: Its value is “high polyreactivity”.

Q: Which “polyreactivity (PSR sort gate)” value does the source give for “QVQLVESVGCLVQAGGTLRLSCAATGRIFADYAMGWYRQAPGKERELVATITSGDRTYYADSVKGRFTTSRDNAKNTVYLQMNSLKPEDTAVYYCAAYKPWYVGLYPWYDYWGQGTQVTVSS” here?
A: The value was “low polyreactivity”.
